Data from the Human Domainome abundance scans (Beltran et al. 2025).
± gives the uncertainty stated by the source.

B1: Steroid hormone receptor ERR2, residues 100 to 176; numbered along this chain, O95718 (parent)
chain: KRLCLVCGDIASGYHYGVASCEACKAFFKRTIQGNIEYSCPATNECEITKRRRKSCQACRFMKCLKVGMLKEGVRLD

Variants of: B1
Assay: abundance fitness (aPCA) (normalised: wild type 0, dead -1); higher = more abundant; growth selection in yeast, the domain comes from the species named
Conditions: Homo sapiens
D9I gave an abundance fitness of -0.369 ± 0.15.
With D9F the abundance fitness was -0.492 ± 0.14.
With D9W the abundance fitness was -0.301 ± 0.072.
Variant G68P has an abundance fitness of -0.894 ± 0.23.
Work on T43M yielded an abundance fitness of 0.03 ± 0.061.
With T43C the abundance fitness was -0.651 ± 0.11.
With T43V the abundance fitness was -0.012 ± 0.044.
In the case of T43H, the abundance fitness is reported as -0.459 ± 0.15.
In the case of T43L, the abundance fitness is reported as -0.234 ± 0.05.
T43E gave an abundance fitness of 0.042 ± 0.053.
V74R showed an abundance fitness of -0.191 ± 0.046.
In the case of V74A, the abundance fitness is reported as 0.126 ± 0.05.
V74P gave an abundance fitness of -0.025 ± 0.094.
In the case of V74D, the abundance fitness is reported as 0.03 ± 0.091.
I48T gave an abundance fitness of -0.159 ± 0.075.
Variant I48V has an abundance fitness of 0.007 ± 0.064.
With I48C the abundance fitness was -0.312 ± 0.14.
With I48G the abundance fitness was -0.191 ± 0.066.
In the case of I48A, the abundance fitness is reported as -0.157 ± 0.079.
With I48F the abundance fitness was -0.298 ± 0.093.
A11G gave an abundance fitness of -0.013 ± 0.043.
For A11C, the abundance fitness was -0.177 ± 0.092.
A11H showed an abundance fitness of -0.691 ± 0.21.
With A11Y the abundance fitness was -0.128 ± 0.092.
A11D showed an abundance fitness of -0.241 ± 0.1.
For A11S, the abundance fitness was 0.067 ± 0.051.
Variant A11V has an abundance fitness of -0.289 ± 0.063.
In the case of A11N, the abundance fitness is reported as -0.153 ± 0.099.
With A11L the abundance fitness was -0.311 ± 0.063.
E37T showed an abundance fitness of -0.796 ± 0.21.
E37D showed an abundance fitness of -0.423 ± 0.12.
E37P gave an abundance fitness of -0.507 ± 0.14.
With E37K the abundance fitness was -0.532 ± 0.13.
For E47T, the abundance fitness was -0.112 ± 0.087.
For E47F, the abundance fitness was -0.354 ± 0.13.
Variant E47N has an abundance fitness of -0.09 ± 0.12.
Variant E47A has an abundance fitness of -0.102 ± 0.056.
Work on E47G yielded an abundance fitness of -0.165 ± 0.045.
E47C showed an abundance fitness of -0.172 ± 0.11.
In the case of E47Y, the abundance fitness is reported as -0.184 ± 0.12.
For G17K, the abundance fitness was -0.477 ± 0.092.
In the case of G17V, the abundance fitness is reported as -0.413 ± 0.055.
In the case of G17F, the abundance fitness is reported as -0.551 ± 0.26.
For G17E, the abundance fitness was -0.027 ± 0.071.
For G17H, the abundance fitness was -0.356 ± 0.19.
With K50Q the abundance fitness was 0.142 ± 0.085.
Variant K50D has an abundance fitness of -0.055 ± 0.093.
K50F gave an abundance fitness of 0.047 ± 0.07.
Work on G8L yielded an abundance fitness of -0.091 ± 0.046.
In the case of G8C, the abundance fitness is reported as -0.381 ± 0.1.
K54Y gave an abundance fitness of 0.091 ± 0.08.
For K54H, the abundance fitness was 0.144 ± 0.11.
For R51M, the abundance fitness was 0.173 ± 0.1.
Variant R51G has an abundance fitness of 0.033 ± 0.11.
R51A showed an abundance fitness of 0.002 ± 0.072.
Work on R51K yielded an abundance fitness of -0.002 ± 0.1.
R51L showed an abundance fitness of -0.097 ± 0.069.
With R51Y the abundance fitness was -0.384 ± 0.13.
Work on R51C yielded an abundance fitness of -0.803 ± 0.32.
In the case of R51N, the abundance fitness is reported as -0.072 ± 0.087.
Work on V18L yielded an abundance fitness of -0.613 ± 0.071.
For V18Y, the abundance fitness was -0.663 ± 0.14.
Variant V67P has an abundance fitness of -1.03 ± 0.24.
In the case of V67Y, the abundance fitness is reported as -0.347 ± 0.14.
V67I showed an abundance fitness of -0.323 ± 0.14.
V67H gave an abundance fitness of -0.321 ± 0.17.
K66E gave an abundance fitness of -0.073 ± 0.075.
Work on K66S yielded an abundance fitness of -0.011 ± 0.049.
For K66F, the abundance fitness was -0.585 ± 0.18.
K66G gave an abundance fitness of -0.256 ± 0.053.
K66M gave an abundance fitness of 0.074 ± 0.066.
For C21F, the abundance fitness was -1.04 ± 0.37.
For C21S, the abundance fitness was -0.532 ± 0.077.
In the case of C21M, the abundance fitness is reported as -0.961 ± 0.15.
For C21L, the abundance fitness was -0.625 ± 0.076.
With C21K the abundance fitness was -0.679 ± 0.11.
C21G showed an abundance fitness of -0.866 ± 0.078.
S55A showed an abundance fitness of 0.278 ± 0.044.
S55L showed an abundance fitness of 0.341 ± 0.042.
S55T showed an abundance fitness of 0.277 ± 0.058.
Work on S55D yielded an abundance fitness of 0.318 ± 0.071.
S55I showed an abundance fitness of 0.344 ± 0.09.
L65W showed an abundance fitness of -0.697 ± 0.095.
For L65G, the abundance fitness was -0.534 ± 0.055.
Work on L65H yielded an abundance fitness of -0.797 ± 0.35.
L65D gave an abundance fitness of -0.548 ± 0.15.
With L65V the abundance fitness was -0.082 ± 0.044.
Work on L65P yielded an abundance fitness of -0.753 ± 0.17.
Variant C46D has an abundance fitness of -0.844 ± 0.22.
C46Y gave an abundance fitness of -0.59 ± 0.23.
With C46M the abundance fitness was -0.557 ± 0.12.
With N44C the abundance fitness was -0.473 ± 0.13.
Work on N44V yielded an abundance fitness of -0.077 ± 0.049.
N44W gave an abundance fitness of -0.269 ± 0.058.
Work on N44P yielded an abundance fitness of -0.741 ± 0.14.
M69F gave an abundance fitness of 0.058 ± 0.083.
Variant M69K has an abundance fitness of -0.931 ± 0.18.
M69W showed an abundance fitness of -0.231 ± 0.059.
For M69R, the abundance fitness was -0.729 ± 0.075.
With M69N the abundance fitness was -0.642 ± 0.17.
Variant M69G has an abundance fitness of -0.703 ± 0.075.
In the case of M69E, the abundance fitness is reported as -0.57 ± 0.1.
For C40R, the abundance fitness was -0.734 ± 0.074.
Work on C40F yielded an abundance fitness of -0.876 ± 0.31.
For C40V, the abundance fitness was -0.688 ± 0.082.
For C40E, the abundance fitness was -0.726 ± 0.11.
Work on N35V yielded an abundance fitness of -0.133 ± 0.045.
Variant N35P has an abundance fitness of 0.012 ± 0.069.
In the case of N35E, the abundance fitness is reported as 0.157 ± 0.046.
Variant N35Y has an abundance fitness of -0.178 ± 0.12.
Work on N35L yielded an abundance fitness of -0.298 ± 0.05.
A42S gave an abundance fitness of -0.098 ± 0.05.
A42K showed an abundance fitness of -0.087 ± 0.062.
C56F gave an abundance fitness of -0.936 ± 0.21.
In the case of C56T, the abundance fitness is reported as -0.691 ± 0.14.
Variant C56L has an abundance fitness of -0.76 ± 0.085.
Work on C56N yielded an abundance fitness of -0.845 ± 0.25.
A26M gave an abundance fitness of -0.116 ± 0.058.
For A26P, the abundance fitness was -0.569 ± 0.11.
A26Q showed an abundance fitness of 0.051 ± 0.05.
A26G showed an abundance fitness of 0.121 ± 0.036.
Work on A26S yielded an abundance fitness of -0.338 ± 0.063.
A26F showed an abundance fitness of -0.467 ± 0.12.
With P41E the abundance fitness was 0.057 ± 0.053.
In the case of P41N, the abundance fitness is reported as 0.123 ± 0.074.
P41A showed an abundance fitness of 0.056 ± 0.043.
For P41W, the abundance fitness was -0.253 ± 0.065.
For P41L, the abundance fitness was -0.134 ± 0.045.
In the case of P41T, the abundance fitness is reported as -0.147 ± 0.063.
P41V gave an abundance fitness of 0.093 ± 0.04.
Work on A19T yielded an abundance fitness of -0.085 ± 0.056.
A19K gave an abundance fitness of -0.135 ± 0.055.
Work on A19L yielded an abundance fitness of -0.046 ± 0.041.
With A19V the abundance fitness was 0.035 ± 0.038.
In the case of M62D, the abundance fitness is reported as -0.057 ± 0.064.
Variant M62Q has an abundance fitness of 0.04 ± 0.057.
M62L gave an abundance fitness of -0.135 ± 0.048.
Variant M62S has an abundance fitness of 0.148 ± 0.045.
Variant M62R has an abundance fitness of -0.026 ± 0.036.
With M62P the abundance fitness was -1.05 ± 0.21.
For S20Y, the abundance fitness was -0.109 ± 0.12.
With S20R the abundance fitness was -0.381 ± 0.048.
Variant S20L has an abundance fitness of -0.185 ± 0.048.
Work on S20T yielded an abundance fitness of 0.346 ± 0.047.
Work on K1L yielded an abundance fitness of -0.67 ± 0.18.
Work on K1I yielded an abundance fitness of -0.45 ± 0.27.
Variant K1T has an abundance fitness of -0.177 ± 0.08.
Variant K1M has an abundance fitness of 0.013 ± 0.074.
With K1Q the abundance fitness was -0.346 ± 0.14.
In the case of K1A, the abundance fitness is reported as -0.34 ± 0.12.
In the case of K1N, the abundance fitness is reported as 0.031 ± 0.12.
In the case of R30D, the abundance fitness is reported as -0.255 ± 0.16.
R30L showed an abundance fitness of -0.466 ± 0.061.
For R30M, the abundance fitness was -0.355 ± 0.082.
In the case of R30E, the abundance fitness is reported as 0.125 ± 0.049.
Variant R30Y has an abundance fitness of -0.799 ± 0.23.
C64K showed an abundance fitness of -0.767 ± 0.2.
C64E gave an abundance fitness of -0.561 ± 0.092.
With C64T the abundance fitness was -0.658 ± 0.15.
In the case of L70H, the abundance fitness is reported as -0.158 ± 0.15.
With L70S the abundance fitness was 0.083 ± 0.052.
Work on L70N yielded an abundance fitness of 0.032 ± 0.085.
In the case of Q57M, the abundance fitness is reported as -0.221 ± 0.063.
Q57V showed an abundance fitness of -0.213 ± 0.045.
Variant Q57G has an abundance fitness of 0.122 ± 0.034.
With Q57P the abundance fitness was -0.066 ± 0.064.
Work on Q57I yielded an abundance fitness of -0.633 ± 0.15.
